{"source": "patent US6355472B2", "about": "“Method for producing nucleoside-5′-phosphate ester” (Ajinomoto Co., Inc., priority 1996, dated 2002)", "molecules": {"B1": {"name": "Acid Phosphatase Derived from Escherichia blattae: enzyme purified from cell-free extract of Escherichia blattae JCM 1650 (SEQ ID NO: 8) (protein)", "chain": "LALVATGNDTTTKPDLYYLKNSEAINSLALLPPPPAVGSIAFLNDQAMYEQGRLLRNTERGKLAAEDANLSSGGVANAFSGAFGSPITEKDAPALHKLLTNMIEDAGDLATRSAKDHYMRIRPFAFYGVSTCNTTEQDKLSKNGSYPSGHTSIGWATALVLAEINPQRQNEILKRGYELGQSRVICGYHWQSDVDAARVVGSAVVATLHTNPAFQQQLQKAKAEFAQHQKK"}, "B2": {"name": "Acid Phosphatase Derived from Morganella morganii: enzyme purified from cell-free extract of Morganella morganii NCIMB 10466 (SEQ ID NO: 4) (protein)", "chain": "AIPAGNDATTKPDLYYLKNEQAIDSLKLLPPPPEVGSIQFLNDQAMYEKGRMLRNTERGKQAQADADLAAGGVATAFSGAFGYPITEKDSPELYKLLTNMIEDAGDLATRSAKEHYMRIRPFAFYGTETCNTKDQKKLSTNGSYPSGHTSIGWATALVLAEVNPANQDAILERGYQLGQSRVICGYHWQSDVDAARIVGSAAVATLHSDPAFQAQLAKAKQEFAQKSQK"}}, "key": {"[1]": {"test": "Properties of the purified acid phosphatase", "assay_type": "biochemical", "settings": "for Temperature stability (stable up to): treatment at pH 7.0 for 30 minutes", "method": "The transphosphorylation activity was measured under the following condition using inosine as the substrate. The reaction was performed at pH 5.0 at 30° C. for 10 minutes in a reaction solution (1 ml) containing 40 μmol/ml of inosine, 100 μmol/ml of sodium pyrophosphate, 100 μmol/ml of sodium acetate buffer (pH 5.0), and an enzyme. The reaction was stopped by adding 200 μl of 2 N hydrochloric acid. After that, precipitates were removed by centrifugation. Then, 5′-inosinic acid produced by the transphosphorylation reaction was quantitatively measured. The amount of enzyme to produce 1 μmol of 5′-inosinic acid per 1 minute under this standard reaction condition was defined as 1 unit.\nThe phosphomonoesterase activity was measured under the following condition using 5′-inosinic acid as a substrate. The reaction was performed at 30° C. for 10 minutes in a reaction solution (1 ml) containing 10 μmol/ml of 5′-inosinic acid, 100 μmol/ml of MES/NaOH buffer (pH 6.0), and an enzyme. The reaction was stopped by adding 200 μl of 2 N hydrochloric acid. After that, precipitates were removed by centrifugation. Then, inosine produced by the hydrolytic reaction was quantitatively measured. An amount of enzyme to produce 1 μmol of inosine per 1 minute under this standard reaction condition was defined as 1 unit."}, "[2]": {"test": "5′-inosinic acid production by purified enzyme sample at various pH", "assay_type": "biochemical", "settings": "enzyme 50 units/dl, pH 4.0, 30° C., 3 hours", "method": "Sodium pyrophosphate (10 g/dl) and inosine (2 g/dl) were dissolved in sodium acetate buffers each having pH of 5.5, 5.0, 4.5, 4.0, and 3.5, to which the enzyme sample described above was added so that a concentration of 50 units/dl was obtained. The reaction mixture was incubated at 30° C. for 6 hours while maintaining each pH, and the amount of produced 5′-inosinic acid was measured along with passage of time. Produced inosinic acid contained only 5′-inosinic acid. Production of 2′-inosinic acid and 3′-inosinic acid by-products was not observed at all. The velocity of 5′-inosinic acid production was maximum at pH 5.0. However, the maximum accumulated amount of 5′-inosinic acid was higher at lower pH. The reaction condition at pH 4.0 was most efficient for production of 5′-inosinic acid, in which 5′-inosinic acid was produced and accumulated in an amount of 2.60 g/dl by performing the reaction for 3 hours.\nSodium pyrophosphate (15 g/dl) and inosine (3 g/dl) were dissolved in sodium acetate buffers each having pH of 5.5, 5.0, 4.5, 4.0, and 3.5, to which the enzyme sample described above was added so that a concentration of 50 units/dl was obtained. The reaction mixture was incubated at 30° C. for 6 hours while maintaining each pH, and the amount of produced 5′-inosinic acid was measured along with passage of time. Produced inosinic acid contained only 5′-inosinic acid. […]"}, "[3]": {"settings": "phosphate ester hydrolytic reaction"}}}
{"molecule": "B1", "values": [{"measurement": "Optimum temperature", "setting": "[1]", "value": "about 35 °C"}, {"measurement": "phosphate ester hydrolytic activity (phosphomonoesterase activity) higher than the transphosphorylation activity", "setting": "[1]", "value": "not less than 30 times"}, {"measurement": "Optimum pH", "setting": "[1]; [3]", "value": 6.5}, {"measurement": "Optimum pH", "setting": "[1]; transphosphorylation reaction", "value": 5.2}, {"measurement": "Temperature stability (stable up to)", "setting": "[1]", "value": "up to 40 °C"}, {"measurement": "5′-inosinic acid produced and accumulated", "setting": "[2]; sodium pyrophosphate 15 g/dl, inosine 3 g/dl", "value": 1.56, "unit": "g/dL"}]}
{"molecule": "B2", "values": [{"measurement": "Optimum temperature", "setting": "[1]", "value": "about 35 °C"}, {"measurement": "phosphate ester hydrolytic activity (phosphomonoesterase activity) higher than the transphosphorylation activity", "setting": "[1]", "value": "not less than 20 times"}, {"measurement": "Optimum pH", "setting": "[1]; [3]", "value": 6.5}, {"measurement": "Optimum pH", "setting": "[1]; transphosphorylation reaction", "value": 5.2}, {"measurement": "Temperature stability (stable up to)", "setting": "[1]", "value": "up to 30 °C"}, {"measurement": "5′-inosinic acid produced and accumulated", "setting": "[2]; sodium pyrophosphate 10 g/dl, inosine 2 g/dl", "value": 2.60, "unit": "g/dL"}]}
